Reference: the Immune Epitope Database (IEDB)

What was measured:
HLA-B*51:01 [1] = test: IEDB peptide-MHC binding, purified MHC/direct/fluorescence; filed as Kd, often an IC50 or EC50 that approximates it; ≥ and ≤ were set here for values at or beyond the usual limits of such assays
HLA-B*07:02 = test: as above
HLA-A*01:01 = test: as above
HLA-B*08:01 = test: as above
HLA-B*44:02 = test: as above
HLA-A*03:01 [2] = test: as above
HLA-A*69:01 [3] = test: as above
HLA-A*24:03 = test: as above; details: source organism: Vibrio cholerae
HLA-B*27:05 = test: as above
HLA-B*58:01 = test: as above
HLA-B*40:01 = test: as above
HLA-B*15:01 = test: as above
HLA-A*31:01 [4] = test: as above
HLA-A*02:01 [5] = test: as above
HLA-A*11:01 [6] = test: as above
HLA-A*26:01 [7] = test: as above; details: source organism: Vibrio cholerae
HLA-B*57:01 [8] = test: as above
HLA-B*48:01 = test: as above; details: source organism: Giardia lamblia ATCC 50803
HLA-B*46:01 [9] = test: as above
HLA-B*15:17 = test: as above
HLA-A*68:02 = test: as above; details: source organism: Cryptosporidium parvum Iowa II
HLA-A*02:19 = test: as above; details: source organism: Cryptosporidium parvum Iowa II
HLA-A*02:03 = test: as above; details: source organism: Cryptosporidium parvum Iowa II
HLA-A*02:12 = test: as above
HLA-B*18:01 [10] = test: IEDB peptide-MHC binding, purified MHC/competitive/fluorescence; filed as Kd, often an IC50 or EC50 that approximates it; ≥ and ≤ were set here for values at or beyond the usual limits of such assays; details: source organism: Cryptosporidium parvum Iowa II
HLA-A*69:01 [11] = test: as above; details: source organism: Cryptosporidium parvum Iowa II
HLA-B*51:01 [12] = test: as above; details: source organism: Cryptosporidium parvum Iowa II
HLA-B*57:01 [13] = test: as above; details: source organism: Cryptosporidium parvum Iowa II
HLA-B*27:03 = test: as above; details: source organism: Cryptosporidium parvum Iowa II
HLA-B*39:01 = test: as above; details: source organism: Cryptosporidium parvum Iowa II
HLA-A*02:01 [14] = test: as above; details: source organism: Cryptosporidium parvum Iowa II
HLA-B*46:01 [15] = test: as above; details: source organism: Cryptosporidium parvum Iowa II
HLA-A*26:01 [16] = test: as above; details: source organism: Cryptosporidium parvum Iowa II
HLA-A*68:01 = test: IEDB peptide-MHC binding, purified MHC/competitive/radioactivity; filed as Kd, often an IC50 or EC50 that approximates it; ≥ and ≤ were set here for values at or beyond the usual limits of such assays; details: source organism: Vaccinia virus WR
HLA-A*03:01 [17] = test: as above; details: source organism: Vaccinia virus WR
HLA-A*33:01 = test: as above; details: source organism: Vaccinia virus WR
HLA-A*31:01 [18] = test: as above; details: source organism: Vaccinia virus WR
HLA-A*11:01 [19] = test: as above; details: source organism: Vaccinia virus WR
HLA-B*45:06 = test: IEDB peptide-MHC binding, purified MHC/competitive/fluorescence; filed as Kd, often an IC50 or EC50 that approximates it; ≥ and ≤ were set here for values at or beyond the usual limits of such assays
HLA-B*15:42 = test: as above
HLA-B*83:01 = test: as above
HLA-B*18:01 [20] = test: IEDB peptide-MHC binding, purified MHC/direct/fluorescence; filed as Kd, often an IC50 or EC50 that approximates it; ≥ and ≤ were set here for values at or beyond the usual limits of such assays; details: source organism: Mammarenavirus lassaense
HLA-A*02:16 = test: as above; details: source organism: Listeria monocytogenes serotype 4b str. H7858
[21] = source organism: Mammarenavirus lassaense
[22] = source organism: Vibrio cholerae
[23] = source organism: Giardia lamblia ATCC 50803
[24] = source organism: Cryptosporidium parvum Iowa II
[25] = source organism: Camelpox virus M-96
[26] = source organism: Bacillus cytotoxicus
[27] = source organism: Listeria monocytogenes
[28] = source organism: Listeria monocytogenes serotype 4b str. H7858
[29] = source organism: Yaba-like disease virus
[30] = source organism: Orthohantavirus dobravaense
[31] = source organism: Human immunodeficiency virus 1
[32] = source organism: Mammarenavirus juninense

For CGRSCTSSL, the Kd (HLA-B*51:01 [1]; [21]) was ≥ 20 µM and the Kd (HLA-B*07:02; [21]) was 0.558 µM.

In the case of DSDPMDGCE, the Kd (HLA-A*01:01; [22]) is reported as ≥ 20 µM, the Kd (HLA-B*08:01; [22]) is reported as ≥ 20 µM and the Kd (HLA-B*44:02; [22]) is reported as ≥ 20 µM. The Kd (HLA-A*03:01 [2]; [22]) was ≥ 20 µM, the Kd (HLA-A*69:01 [3]; [22]) was ≥ 20 µM and the Kd (HLA-A*24:03) was ≥ 20 µM. For the same sequence, the Kd (HLA-B*27:05; [22]) was ≥ 20 µM, the Kd (HLA-B*07:02; [22]) was ≥ 20 µM and the Kd (HLA-B*58:01; [22]) was ≥ 20 µM. For the same sequence, the Kd (HLA-B*40:01; [22]) was ≥ 20 µM, the Kd (HLA-B*15:01; [22]) was ≥ 20 µM and the Kd (HLA-A*31:01 [4]; [22]) was ≥ 20 µM. For the same sequence, the Kd (HLA-A*02:01 [5]; [22]) was ≥ 20 µM, the Kd (HLA-A*11:01 [6]; [22]) was ≥ 20 µM and the Kd (HLA-A*26:01 [7]) was ≥ 20 µM.

DSPATLSAY was tested, and the Kd (HLA-A*01:01; [23]) was ≥ 20 µM, the Kd (HLA-A*03:01 [2]; [23]) was ≥ 20 µM and the Kd (HLA-B*57:01 [8]; [23]) was ≥ 20 µM. For the same sequence, the Kd (HLA-B*48:01) was ≥ 20 µM, the Kd (HLA-B*27:05; [23]) was ≥ 20 µM and the Kd (HLA-B*58:01; [23]) was ≥ 20 µM. The Kd (HLA-B*40:01; [23]) was ≥ 20 µM, the Kd (HLA-B*15:01; [23]) was ≥ 20 µM and the Kd (HLA-A*31:01 [4]; [23]) was ≥ 20 µM. For the same sequence, the Kd (HLA-A*02:01 [5]; [23]) was ≥ 20 µM, the Kd (HLA-A*11:01 [6]; [23]) was ≥ 20 µM and the Kd (HLA-B*46:01 [9]; [23]) was ≥ 20 µM. The Kd (HLA-B*15:17; [23]) was 5.53 µM.

In the case of GFPFFIMPK, the Kd (HLA-A*68:02) is reported as ≥ 20 µM, the Kd (HLA-A*02:19) is reported as ≥ 20 µM and the Kd (HLA-A*02:03) is reported as ≥ 20 µM. The Kd (HLA-A*11:01 [6]; [24]) was 0.078 µM, the Kd (HLA-A*02:12; [24]) was ≥ 20 µM and the Kd (HLA-B*18:01 [10]) was ≥ 20 µM. For the same sequence, the Kd (HLA-A*69:01 [11]) was ≥ 20 µM, the Kd (HLA-B*51:01 [12]) was ≥ 20 µM and the Kd (HLA-B*57:01 [13]) was ≥ 20 µM. For the same sequence, the Kd (HLA-B*27:03) was ≥ 20 µM, the Kd (HLA-B*39:01) was ≥ 20 µM and the Kd (HLA-A*02:01 [14]) was ≥ 20 µM. For the same sequence, the Kd (HLA-B*46:01 [15]) was ≥ 20 µM and the Kd (HLA-A*26:01 [16]) was ≥ 20 µM.

In the case of KSISSIFGY, the Kd (HLA-B*57:01 [8]; [25]) is reported as 0.037 µM, the Kd (HLA-B*58:01; [25]) is reported as 0.0015 µM and the Kd (HLA-B*15:17; [25]) is reported as ≤ 0.001 µM. For the same sequence, the Kd (HLA-A*68:01) was 6.74 µM, the Kd (HLA-A*03:01 [17]) was 0.0474 µM and the Kd (HLA-A*33:01) was ≥ 25.2 µM. It also gave a Kd (HLA-A*31:01 [18]) of 0.0866 µM and a Kd (HLA-A*11:01 [19]) of 0.00327 µM.

For KSTSPTRTW, the Kd (HLA-B*57:01 [8]; [25]) was 0.0707 µM, the Kd (HLA-B*58:01; [25]) was 0.035 µM and the Kd (HLA-B*15:17; [25]) was 0.0024 µM.

KTMMQAHDL showed a Kd (HLA-B*57:01 [8]; source organism: Bacillus cereus AH1134) of 0.12 µM, a Kd (HLA-B*58:01; [26]) of 0.0759 µM and a Kd (HLA-B*15:17; [26]) of 0.226 µM.

With LSVSSRCPI the Kd (HLA-B*57:01 [8]; [21]) was 1.17 µM, the Kd (HLA-B*58:01; [21]) was 0.139 µM and the Kd (HLA-B*15:17; [21]) was 0.0041 µM.

For MAMLADYFY, the Kd (HLA-B*51:01 [1]; [27]) was ≥ 20 µM, the Kd (HLA-B*07:02; [27]) was ≥ 20 µM and the Kd (HLA-B*15:01; [28]) was 0.012 µM.

With NTDNKFISY the Kd (HLA-A*01:01; [25]) was ≤ 0.001 µM, the Kd (HLA-B*45:06; [29]) was ≥ 5 µM and the Kd (HLA-B*15:42; [29]) was ≥ 5 µM. The Kd (HLA-B*83:01; [29]) was ≥ 5 µM.

With QTSSIEGAW the Kd (HLA-B*57:01 [8]; [30]) was ≥ 20 µM, the Kd (HLA-B*58:01; [30]) was ≥ 20 µM and the Kd (HLA-B*15:17; [30]) was 5.78 µM.

With RPMTYKAAL the Kd (HLA-A*69:01 [3]; [31]) was 11 µM, the Kd (HLA-B*07:02; [31]) was 0.0396 µM and the Kd (HLA-A*11:01 [6]; [31]) was 17.6 µM. For the same sequence, the Kd (HLA-B*45:06; [31]) was ≥ 5 µM, the Kd (HLA-B*15:42; [31]) was ≥ 5 µM and the Kd (HLA-B*83:01; [31]) was 0.0987 µM.

SERFINYAI was tested, and the Kd (HLA-B*18:01 [20]) was 0.033 µM, the Kd (HLA-B*40:01; [21]) was 0.0525 µM and the Kd (HLA-B*45:06; [21]) was ≥ 5 µM. For the same sequence, the Kd (HLA-B*15:42; [21]) was ≥ 5 µM and the Kd (HLA-B*83:01; [21]) was ≥ 5 µM.

For SQDEVLFLV, the Kd (HLA-A*69:01 [3]; [27]) was 0.0353 µM, the Kd (HLA-A*02:01 [5]; [27]) was 0.0045 µM and the Kd (HLA-A*02:16) was ≤ 0.001 µM. The Kd (HLA-A*02:12; [28]) was 0.004 µM.

With YAKKFKTGM the Kd (HLA-A*01:01; [32]) was ≥ 20 µM, the Kd (HLA-B*08:01; [32]) was 0.417 µM and the Kd (HLA-B*44:02; [32]) was ≥ 20 µM. The Kd (HLA-A*03:01 [2]; [32]) was ≥ 20 µM, the Kd (HLA-B*57:01 [8]; [32]) was ≥ 20 µM and the Kd (HLA-B*27:05; [32]) was ≥ 20 µM. The Kd (HLA-B*07:02; [32]) was ≥ 20 µM, the Kd (HLA-B*58:01; [32]) was ≥ 20 µM and the Kd (HLA-B*40:01; [32]) was ≥ 20 µM. For the same sequence, the Kd (HLA-A*31:01 [4]; [32]) was ≥ 20 µM, the Kd (HLA-A*02:01 [5]; [32]) was ≥ 20 µM and the Kd (HLA-A*11:01 [6]; [32]) was ≥ 20 µM. The Kd (HLA-B*46:01 [9]; [32]) was ≥ 20 µM.
